In patent US20250375497A1 (UNIVERSITY OF VIRGINIA PATENT FOUNDATION, published 2025):

Target: T1, Myc-tagged barley CslF6 (barley (Hordeum vulgare subsp. vulgare))
T1 construct: also called Myc-tagged CslF6 species; not shown: Myc tag
T1 chain: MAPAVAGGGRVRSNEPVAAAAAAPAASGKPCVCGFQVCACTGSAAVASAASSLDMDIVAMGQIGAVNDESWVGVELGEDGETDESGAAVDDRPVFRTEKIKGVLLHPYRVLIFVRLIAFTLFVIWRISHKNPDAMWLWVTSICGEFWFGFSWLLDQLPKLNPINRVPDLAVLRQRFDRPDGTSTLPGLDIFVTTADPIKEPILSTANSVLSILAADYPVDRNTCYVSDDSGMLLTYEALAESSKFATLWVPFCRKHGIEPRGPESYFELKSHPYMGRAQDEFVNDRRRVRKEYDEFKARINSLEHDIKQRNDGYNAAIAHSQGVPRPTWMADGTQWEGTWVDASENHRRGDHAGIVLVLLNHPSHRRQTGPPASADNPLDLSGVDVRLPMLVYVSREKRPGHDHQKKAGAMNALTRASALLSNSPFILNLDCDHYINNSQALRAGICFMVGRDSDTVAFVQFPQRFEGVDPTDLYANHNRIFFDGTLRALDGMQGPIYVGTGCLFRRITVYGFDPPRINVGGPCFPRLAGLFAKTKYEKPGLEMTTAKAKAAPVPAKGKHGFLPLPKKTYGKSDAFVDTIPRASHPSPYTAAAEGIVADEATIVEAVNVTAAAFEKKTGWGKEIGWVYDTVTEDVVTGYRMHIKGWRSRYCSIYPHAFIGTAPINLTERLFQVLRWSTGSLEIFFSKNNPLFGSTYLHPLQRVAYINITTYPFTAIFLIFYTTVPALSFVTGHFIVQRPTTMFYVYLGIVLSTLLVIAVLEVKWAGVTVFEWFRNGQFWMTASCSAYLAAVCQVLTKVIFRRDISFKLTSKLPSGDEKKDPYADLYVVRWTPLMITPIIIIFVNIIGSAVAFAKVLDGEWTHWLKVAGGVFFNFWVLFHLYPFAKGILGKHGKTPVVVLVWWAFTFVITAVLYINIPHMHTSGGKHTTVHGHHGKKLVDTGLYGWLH
Experiment: co-purification of His- and Myc-tagged CslF6

- binding result: no binding
B1: barley (Hordeum vulgare) cellulose synthase-like CslF6 with N-terminal 12xHis tag (enzyme)
chain: T1 chain
notes: Expressed in Sf9 insect cells and purified in detergent (LMNG/CHS, then GDN); also called HvCslF6; His-tagged CslF6; not shown: N-terminal 12xHis tag
